Data from patent publication US20210388087A1 (Chugai, published 2021).

Columns and labels:
[1] = molecular target: T1, Human CD137 ECD (human); test: SPR Biacore T200, 37 C, Ab captured on anti-human Fc, antigen as analyte;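 also: recombinant human CD137 flowed over antibodies held by amine-coupled anti-human Fc on a CM4 chip, run in ACES pH 7.4 buffer with 150 mM NaCl and 0.05% Tween 20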
T1 construct: also called human CD137 extracellular domain; recombinant human CD137
Procedure: (§1) Binding affinity of Dual-Fab antibodies (Dual-Ig) to human CD3 were assessed at 25 degrees C. using Biacore T200 instrument (GE Healthcare). Anti-human Fc (GE Healthcare) was immobilized onto all flow cells of a CM4 sensor chip using amine coupling kit (GE Healthcare). Antibodies were captured onto the anti-Fc sensor surfaces, then recombinant human CD3 or CD137 was injected over the flow cell. All antibodies and analytes were prepared in ACES pH 7.4 containing 20 mM ACES, 150 mM NaCl, 0.05% Tween 20, 0.005% NaN3. Sensor surface was regenerated each cycle with 3M MgCl2. […] CD137 binding affinity assay was conducted in same condition except assay temperature was set at 37 degrees C.

[2] = molecular target: T2, Human CD3eg linker (human); test: SPR Biacore T200, 25 C, Ab captured on anti-human Fc, antigen as analyte;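 also: Anti-Fc amine-coupled to a CM4 chip, recombinant human CD3 flowed over in 20 mM ACES buffer pH 7.4 with 150 mM NaCl and 0.05% Tween 20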
T2 construct: Single chain: CD3 epsilon and gamma subunits joined by a 29-mer linker, Flag-tag at the C-terminus; also called recombinant human CD3
T2 chain: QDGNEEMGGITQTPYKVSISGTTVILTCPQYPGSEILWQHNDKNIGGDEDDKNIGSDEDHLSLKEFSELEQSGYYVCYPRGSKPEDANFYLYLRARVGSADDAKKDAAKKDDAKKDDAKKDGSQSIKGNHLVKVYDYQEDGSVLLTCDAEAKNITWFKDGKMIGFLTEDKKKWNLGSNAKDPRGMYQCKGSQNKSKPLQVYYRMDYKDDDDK
Procedure: as §1

[3] = molecular target: human CD3 ed (human, UniProt P07766 23-126; P04234 22-105, limits assumed); test: SPR Biacore T200, IgG captured on protein A, 25 C;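 also: antigens diluted in ACES running buffer at pH 7.4 were flowed over antibodies held on a CM3 chip bearing amine-coupled protein A, with buffer alone serving as blank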
Procedure: (§2) Sensor chip CM3 (GE Healthcare) was immobilized with an appropriate amount of sure protein A (GE Healthcare) by amine coupling. The selected antibodies were captured by the chip to allow interaction to human CD3 ed, human CD137 and cyno CD137 as an antigen. The running buffer used was 20 mmol/1 ACES, 150 mmol/1 NaCl, 0.05% (w/v) Tween20, pH 7.4. All measurements were carried out at 25 degrees C. The antigens were diluted using the running buffer.
(§3) Diluted antigen solutions and the running buffer which is the blank were loaded at a flow rate of 30 micro L/min for 180 seconds to allow each concentration of the antigen to interact with the antibody captured on the sensor chip. […] Next, to regenerate the sensor chip, 10 mmol/L glycine-HCl, pH 1.5 was loaded at a flow rate of 30 micro L/min for 10 seconds and 50 mmol/L NaOH was loaded at a flow rate 30 micro L/min for 10 seconds.
(§4) Diluted antigen solutions and the running buffer which is the blank were loaded at a flow rate of 30 micro L/min for 120 seconds to allow each of the antigens to interact with the antibody captured on the sensor chip. […] Next, to regenerate the sensor chip, 10 mmol/L glycine-HCl, pH 1.5 was loaded at a flow rate of 30 micro L/min for 30 seconds and 50 mmol/L NaOH was loaded at a flow rate 30 micro L/min for 30 seconds.

[4] = molecular target: T3, cyno CD137 (cynomolgus monkey, UniProt Q07011 24-186 (human entry), limits assumed); test: SPR Biacore T200, IgG captured on protein A, 25 C;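 also: antigens diluted in ACES running buffer at pH 7.4 were flowed over antibodies held on a CM3 chip bearing amine-coupled protein A, with buffer alone serving as blank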
T3 construct: also called cynomolgus monkey CD137
T3 chain: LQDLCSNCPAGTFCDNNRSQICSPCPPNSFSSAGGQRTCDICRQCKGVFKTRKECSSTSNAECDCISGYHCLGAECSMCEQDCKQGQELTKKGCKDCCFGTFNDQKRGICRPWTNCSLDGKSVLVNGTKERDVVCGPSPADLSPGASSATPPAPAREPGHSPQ
Procedure: as §2, §3, §4

T1 sequence (chain, as listed by the source limits assumed): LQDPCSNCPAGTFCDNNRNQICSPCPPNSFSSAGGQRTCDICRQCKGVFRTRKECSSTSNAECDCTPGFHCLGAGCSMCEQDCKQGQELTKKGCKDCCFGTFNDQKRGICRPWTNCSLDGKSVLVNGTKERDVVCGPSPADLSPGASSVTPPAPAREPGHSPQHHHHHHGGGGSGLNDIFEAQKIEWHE
human CD3 ed, sequence (P07766 23-126 limits assumed, chain 1 of 2): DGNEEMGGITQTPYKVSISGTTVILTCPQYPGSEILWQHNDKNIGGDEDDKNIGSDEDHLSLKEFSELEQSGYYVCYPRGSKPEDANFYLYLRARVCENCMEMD
human CD3 ed, sequence (P04234 22-105 limits assumed, chain 2 of 2): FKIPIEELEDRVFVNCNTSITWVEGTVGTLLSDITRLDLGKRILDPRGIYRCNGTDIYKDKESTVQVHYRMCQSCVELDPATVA

B1: H1550L0918 (antibody, V domains shown)
VH: QVQLVESGGGLVQPGRSLRLSCAASGFKFSNVWMHWVRQAPGKGLEWVAQIKDKYNAYAAYYAPSVKGRFTISRDDSKNSIYLQMNSLKTEDTAVYYCHYIHYASASTLLPAFGVDAWGQGTTVTVSS
VL: DIVMTQSPLSLPVTPGEPASISCQPSQEVVHMNNVVYLHWYQQKPGQAPRLLIYKVSNRFPGVPDRFSGSGSGTDFTLKISRVEAEDVGVYYCAQGTSHPFTFGQGTKLEIK
notes: Dual-Ig, IgG; also called H1550L918; dBBDu183H1550/dBBDu072L0918
Kd [1]: 530 nM | koff [1]: 0.00579 s⁻¹ | kon [1]: 10900 M⁻¹ s⁻¹ | Kd [2]: 43.8 nM | koff [2]: 0.00316 s⁻¹ | kon [2]: 72000 M⁻¹ s⁻¹

B2: H2591L0581 (antibody, V domains shown)
VH: QVQLVESGGGLVQPGRSLRLSCAASGFKFSNVWFHWVRQAPGKGLEWVAQIKDYYNAYAGYYHPSVKGRFTISRDDSKNSIYLQMNSLKTEDTAVYYCHYVHYAAASTLLPAEGVDAWGQGTTVTVSS
VL: DIVMTQSPLSLPVTPGEPASISCQPSQEVVHMNRNTYLHWYQQKPGQAPRLLIYKVSNRFPGVPDRFSGSGSGTDFTLKISRVEAEDVGVYYCAQGTSHPFTFGQGTKLEIK
notes: Dual-Ig, IgG; also called H2591L581; dBBDu183H2591/dBBDu072L0581
Kd [1]: 36.3 nM | koff [1]: 0.000742 s⁻¹ | kon [1]: 20400 M⁻¹ s⁻¹ | Kd [2]: 525 nM | koff [2]: 0.0535 s⁻¹ | kon [2]: 102000 M⁻¹ s⁻¹

B3: H1673L0943 (antibody, V domains shown)
VH: QVQLVESGGGLVQPGRSLRLSCAASGFVFSNVWFHWVRQAPGKGLEWVAQIKDKWNAYADYYAPSVKERFTISRDDSKNSIYLQMNSLKTEDTAVYYCHYIHYASASTLLPAEGIDAWGQGTTVTVSS
VL: DIVMTQSPLSLPVTPGEPASISCQPSEEVVHMNRNTYLHWYQQKPGQAPRLLIYKVSNLFPGVPDRFSGSGSGTDFTLKISRVEAEDVGVYYCAQGTHHPFTFGQGTKLEIK
notes: Dual-Ig, IgG; also called dBBDu183H1673/dBBDu072L0943
Kd [1]: 59.1 nM | koff [1]: 0.000722 s⁻¹ | kon [1]: 12200 M⁻¹ s⁻¹ | Kd [2]: 21 nM | koff [2]: 0.00116 s⁻¹ | kon [2]: 55000 M⁻¹ s⁻¹

B4: H1673L0581 (antibody, V domains shown)
VH: QVQLVESGGGLVQPGRSLRLSCAASGFVFSNVWFHWVRQAPGKGLEWVAQIKDKWNAYADYYAPSVKERFTISRDDSKNSIYLQMNSLKTEDTAVYYCHYIHYASASTLLPAEGIDAWGQGTTVTVSS
VL: DIVMTQSPLSLPVTPGEPASISCQPSQEVVHMNRNTYLHWYQQKPGQAPRLLIYKVSNRFPGVPDRFSGSGSGTDFTLKISRVEAEDVGVYYCAQGTSHPFTFGQGTKLEIK
notes: Dual-Ig, IgG; also called dBBDu183H1673/dBBDu072L0581
Kd [1]: 80.4 nM | koff [1]: 0.00096 s⁻¹ | kon [1]: 11900 M⁻¹ s⁻¹ | Kd [2]: 13.3 nM | koff [2]: 0.00106 s⁻¹ | kon [2]: 79600 M⁻¹ s⁻¹

B5: H2594L0581 (antibody, V domains shown)
VH: QVQLVESGGGLVQPGRSLRLSCAASGFKFSNVWFHWVRQAPGKGLEWVAQIKDYYNAYAGYYHPSVKGRFTISRDDSKNSIYLQMNSLKTEDTAVYYCHYVHYAAASQLLPAEGVDAWGQGTTVTVSS
VL: DIVMTQSPLSLPVTPGEPASISCQPSQEVVHMNRNTYLHWYQQKPGQAPRLLIYKVSNRFPGVPDRFSGSGSGTDFTLKISRVEAEDVGVYYCAQGTSHPFTFGQGTKLEIK
notes: Dual-Ig, IgG; also called H2594L581; dBBDu183H2594/dBBDu072L0581
Kd [1]: 78.1 nM | koff [1]: 0.00163 s⁻¹ | kon [1]: 20900 M⁻¹ s⁻¹ | Kd [2]: 593 nM | koff [2]: 0.0584 s⁻¹ | kon [2]: 98300 M⁻¹ s⁻¹

B6: dBBDu167/L091 (antibody, V domains shown)
VH: QVQLVESGGGLVQPGRSLRLSCAASGFTFSNAWMHWVRQAPGKGLEWVAQIKDKGNLYAAYYAPSVKGRFTISRDDSKNSIYLQMNSLKTEDTAVYYCHYVHYASAGGGLPGFGVDAWGQGTTVTVSS
VL: DIVMTQSPLSLPVTPGEPASISCSASESLLHNNRHTYLHWYQQKPGQAPRLLIYRVSNRFNGVPDRFSGSGSGTDFTLKISRVEAEDVGVYYCGQGTQVPFTFGQGTKLEIK
notes: IgG format; constant regions not specified
Kd [3]: 413 nM | koff [3]: 0.0216 s⁻¹ | kon [3]: 52400 M⁻¹ s⁻¹ | Kd [4]: 4170 nM | koff [4]: 0.0101 s⁻¹ | kon [4]: 2430 M⁻¹ s⁻¹

B7: H1649L0943 (antibody, V domains shown)
VH: QVQLVESGGGLVQPGRSLRLSCAASGFVFSNVWFHWVRQAPGKGLEWVAQIKDKYNAYADYYAPSVKERFTISRDDSKNSIYLQMNSLKTEDTAVYYCHYVHYASASTLLPAEGVDAWGQGTTVTVSS
VL: DIVMTQSPLSLPVTPGEPASISCQPSEEVVHMNRNTYLHWYQQKPGQAPRLLIYKVSNLFPGVPDRFSGSGSGTDFTLKISRVEAEDVGVYYCAQGTHHPFTFGQGTKLEIK
notes: Dual-Ig, IgG; also called dBBDu183H1649/dBBDu072L0943
Kd [1]: 32.8 nM | koff [1]: 0.000468 s⁻¹ | kon [1]: 14300 M⁻¹ s⁻¹ | Kd [2]: 789 nM | koff [2]: 0.0481 s⁻¹ | kon [2]: 61000 M⁻¹ s⁻¹

B8: H1610L0581 (antibody, V domains shown)
VH: QVQLVESGGGLVQPGRSLRLSCAASGFVFSNVWMHWVRQAPGKGLEWVAQIKDKWNAYAAYYAPSVKGRFTISRDDSKNSIYLQMNSLKTEDTAVYYCHYIHYASASTLLPAEGIDAWGQGTTVTVSS
VL: DIVMTQSPLSLPVTPGEPASISCQPSQEVVHMNRNTYLHWYQQKPGQAPRLLIYKVSNRFPGVPDRFSGSGSGTDFTLKISRVEAEDVGVYYCAQGTSHPFTFGQGTKLEIK
notes: Dual-Ig, IgG; also called H1610L581; dBBDu183H1610/dBBDu072L0581
Kd [1]: 103 nM | koff [1]: 0.0011 s⁻¹ | kon [1]: 10700 M⁻¹ s⁻¹ | Kd [2]: 20.9 nM | koff [2]: 0.00142 s⁻¹ | kon [2]: 68000 M⁻¹ s⁻¹

B9: H1571L0581 (antibody, V domains shown)
VH: QVQLVESGGGLVQPGRSLRLSCAASGFKFSNVWFHWVRQAPGKGLEWVAQIKDKYNAYATYYAPSVKGRFTISRDDSKNSIYLQMNSLKTEDTAVYYCHYVHYASASTLLPAFGVDAWGQGTTVTVSS
VL: DIVMTQSPLSLPVTPGEPASISCQPSQEVVHMNRNTYLHWYQQKPGQAPRLLIYKVSNRFPGVPDRFSGSGSGTDFTLKISRVEAEDVGVYYCAQGTSHPFTFGQGTKLEIK
notes: Dual-Ig, IgG; also called dBBDu183H1571/dBBDu072L0581
Kd [1]: 86.8 nM | koff [1]: 0.00105 s⁻¹ | kon [1]: 12100 M⁻¹ s⁻¹ | Kd [2]: 110 nM | koff [2]: 0.0156 s⁻¹ | kon [2]: 142000 M⁻¹ s⁻¹

B10: H1643L0581 (antibody, V domains shown)
VH: QVQLVESGGGLVQPGRSLRLSCAASGFKFSNVWFHWVRQAPGKGLEWVAQIKDYYNAYAAYYAPSVKGRFTISRDDSKNSIYLQMNSLKTEDTAVYYCHYVHYASASTLLPAEGVDAWGQGTTVTVSS
VL: DIVMTQSPLSLPVTPGEPASISCQPSQEVVHMNRNTYLHWYQQKPGQAPRLLIYKVSNRFPGVPDRFSGSGSGTDFTLKISRVEAEDVGVYYCAQGTSHPFTFGQGTKLEIK
notes: Dual-Ig, IgG; also called H1643L581; dBBDu183H1643/dBBDu072L0581
Kd [1]: 49.4 nM | koff [1]: 0.000606 s⁻¹ | kon [1]: 12300 M⁻¹ s⁻¹ | Kd [2]: 265 nM | koff [2]: 0.0251 s⁻¹ | kon [2]: 94600 M⁻¹ s⁻¹

B11: H1610L0939 (antibody, V domains shown)
VH: QVQLVESGGGLVQPGRSLRLSCAASGFVFSNVWMHWVRQAPGKGLEWVAQIKDKWNAYAAYYAPSVKGRFTISRDDSKNSIYLQMNSLKTEDTAVYYCHYIHYASASTLLPAEGIDAWGQGTTVTVSS
VL: DIVMTQSPLSLPVTPGEPASISCQPSQEVVHMNRNTYLHWYQQKPGQAPRLLIYKVSNVFPGVPDRFSGSGSGTDFTLKISRVEAEDVGVYYCAQGTHHPFTFGQGTKLEIK
notes: Dual-Ig, IgG; also called H1610L939; dBBDu183H1610/dBBDu072L0939
Kd [1]: 61.8 nM | koff [1]: 0.000801 s⁻¹ | kon [1]: 13000 M⁻¹ s⁻¹ | Kd [2]: 50.7 nM | koff [2]: 0.00253 s⁻¹ | kon [2]: 50000 M⁻¹ s⁻¹

B12: H1651L0581 (antibody, V domains shown)
VH: QVQLVESGGGLVQPGRSLRLSCAASGFVFSNVWFHWVRQAPGKGLEWVAQIKDKYNAYADYYAPSVEGRFTISRDDSKNSIYLQMNSLKTEDTAVYYCHYVHYASASTLLPAEGVDAWGQGTTVTVSS
VL: DIVMTQSPLSLPVTPGEPASISCQPSQEVVHMNRNTYLHWYQQKPGQAPRLLIYKVSNRFPGVPDRFSGSGSGTDFTLKISRVEAEDVGVYYCAQGTSHPFTFGQGTKLEIK
notes: Dual-Ig, IgG; also called dBBDu183H1651/dBBDu072L0581
Kd [1]: 43.2 nM | koff [1]: 0.000603 s⁻¹ | kon [1]: 14000 M⁻¹ s⁻¹ | Kd [2]: 517 nM | koff [2]: 0.0371 s⁻¹ | kon [2]: 71800 M⁻¹ s⁻¹

B13: H1649L0581 (antibody, V domains shown)
VH: QVQLVESGGGLVQPGRSLRLSCAASGFVFSNVWFHWVRQAPGKGLEWVAQIKDKYNAYADYYAPSVKERFTISRDDSKNSIYLQMNSLKTEDTAVYYCHYVHYASASTLLPAEGVDAWGQGTTVTVSS
VL: DIVMTQSPLSLPVTPGEPASISCQPSQEVVHMNRNTYLHWYQQKPGQAPRLLIYKVSNRFPGVPDRFSGSGSGTDFTLKISRVEAEDVGVYYCAQGTSHPFTFGQGTKLEIK
notes: Dual-Ig, IgG; also called dBBDu183H1649/dBBDu072L0581
Kd [1]: 42.8 nM | koff [1]: 0.000553 s⁻¹ | kon [1]: 12900 M⁻¹ s⁻¹ | Kd [2]: 449 nM | koff [2]: 0.0336 s⁻¹ | kon [2]: 75000 M⁻¹ s⁻¹
